In paper PMC12177922, “In Vivo Ribosome-Amplified MetaBOlism, RAMBO, Effect Observed by Real Time Pulse Chase, RTPC, NMR Spectroscopy” (Biochemistry, 2025):

Substrate: Nc1ncnc2c1ncn2[C@@H]1O[C@H](COP(=O)(O)OP(=O)(O)OP(=O)(O)O)[C@@H](O)[C@H]1O
Test: direct 1H NMR kinetic assay (FBP peak)
Type: biochemical, Geobacillus stearothermophilus
Conditions: 1 mM F6P, 1 nM enzyme, pH 7.5, 10 mM sodium phosphate, 50 mM KCl, 10 mM MgCl2, 10 °C, no ribosomes, fit with substrate inhibition

B1: PFK-A (Geobacillus stearothermophilus) (protein)
chain: MKRIGVLTSGGDSPGMNAAIRSVVRKAIYHGVEVYGVYHGYAGLIAGNIKKLEVGDVGDIIHRGGTILYTARCPEFKTEEGQKKGIEQLKKHGIEGLVVIGGDGSYQGAKKLTEHGFPCVGVPGTIDNDIPGTDFTIGFDTALNTVIDAIDKIRDTATSHERTYVIEVMGRHAGDIALWSGLAGGAETILIPEADYDMNDVIARLKRGHERGKKHSIIIVAEGVGSGVDFGRQIQEATGFETRVTVLGHVQRGGSPTAFDRVLASRLGARAVELLLEGKGGRCVGIQNNQLVDHDIAEALANKHTIDQRMYALSKELSI
notes: commercial lyophilized enzyme (Sigma-Aldrich)
In the case of B1, the Km is reported as 84 ± 9.8 µM and the kcat is reported as 36 ± 1.5 s⁻¹.
